The nanobody polyreactivity screen of Harvey et al. (2022)

Test: yeast display, Sf9 membrane polyspecificity reagent, FACS + sequencing; frameworks hold sequencing errors
In short: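 Using colony PCR, genes from sorted yeast display clones were amplified, then sequenced on MiSeq at 2 × 250 and filtered by CDR length. The clones had been stained with 10% biotinylated, detergent-solubilized Sf9 membrane reagent for 1 hour at 4 °C and sorted by FACS into low and high (top ~1%) gates on anti-HA and streptavidin fluorescence. Polyreactivity labels come from the gate of origin.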

Sequence	polyreactivity (PSR sort gate)
QVQLVESGGGLVQAGGSLRLSCAASGLIFGRYAMGGYRQAPGKEREFVAAITWRVGTTYYADSVKGRFTISRDNAKITVYLQMNSLKPEDTAVYYCAARSRTGRYDYWGQGTQVTVSS	high polyreactivity
QVQLVESGGGLVQAGGSLRLSCAASGLIFGSYAMGWYRQAPGKERELVAAINKSGGSTYYADSVKGRFTISRDNAKNTVYLQMNSLKPEDTAVYYCAKGRSKYYQPGQRDYWGQGTQVTVSS	high polyreactivity
QVQLVESGGGLVQAGGSLRLSCAASGLIFGTYAMGWYRQAPGKERELVAVISSSGGSTYYADSVKGRFTISRDNAKNTVYLQMNSLKPEDTAVYYCNARAFRQGHFEYDYWGQGTQVTVSS	low polyreactivity
QVQLVESGGGLVQAGGSLRLSCAASGLIFGVNAMGLYRQAPGTESELVAAITSRGGSTYYADSVKGRFTISRDNAKNTVYLQMNSLKPEDTAVDYCAAKYAYYEPYSWRPQRTYNYWGQGTQVTVSS	high polyreactivity
QVQLVESGGGLVQAGGSLRLSCAASGLIFGWNAMGWYRQAPGKERELVAAITWNGGSTYYADSVKGRFTISRDNAKITVSLQMNSLKPEDTAVYYCAARVGWNIRGYDYWGQGTQVTVSS	low polyreactivity
QVQLVESGGGLVQAGGSLRLSCAASGLIFGYYAMGCYRQAPGKERELVAAISSSGSTYYADSVKGRFTISCDNEKNTVYLQMNSLKPEDTAVYYCNVDISSYGGDYWGQGTQVTVSS	low polyreactivity
QVQLVESGGGLVQAGGSLRLSCAASGLIFGYYAMGWYRQAPGKEREFVAAIDGSDGTTYYADSVKGRFTISRDNAKNTVYLQMNSLKPEDTAVYFCNADSSSYSSDLGYDYWGQGTQVTVSS	low polyreactivity
QVQLVESGGGLVQAGGSLRLSCAASGLIFGYYAMGWYRQAPGKESELVDAFSFSGGSTYYADSVKGRFTISRDNAKNTVYLQMNSLKPEDTAVYYCAADLDGSSEYEYWGQCTQVTVSS	low polyreactivity
QVQLVESGGGLVQAGGSLRLSCAASGLIFGYYTMGWYRQAPGKEREFVAAISRGGGSTYYADSVNGRFTISRDNAKNTVYLHMNSLKPEDTAVYYCAAVVYGQVQPAYDYWGQGTQVTVLS	high polyreactivity
QVQLVESGGGLVQAGGSLRLSCAASGLIFHGYAMGWYRQAPGKERELVAVITKNGGRTYYADSVKGRFTISRDTAKNTVYLQMNSLKPEDTAVYYCATGKNYWRGYEYWGQGTQVTVSS	high polyreactivity
QVQLVESGGGLVQAGGSLRLSCAASGLIFHKNAMGWYRQAPGKERELVATITSGGNTNYADSVKGRFTISRDNAKNTVYLQMNSLKPEDTAVYYCAKDTHLLNEHSGTSREYDYWGQGTQVTVSS	low polyreactivity
QVQLVESGGGLVQAGGSLRLSCAASGLIFHQYAMGWYRQAPGKERELVAAITRSGTRTYYADSVKGRFTISRDNAKNTVYLQMNSLKPEDTAVYYCAAGDTQGVSMDYWGQGTQVNVSS	high polyreactivity
QVQLVESGGGLVQAGGSLRLSCAASGLIFIAYAMGWYRQAPGKDRELVAAISSGGSTYADSVKRRFTISRDNAKNTVYLQMNSLKPEETAVYYCNADSWSGTTYFNFNYWGQGTQVTVSS	low polyreactivity
QVQLVESGGGLVQAGGSLRLSCAASGLIFIAYAMGWYRQAPGKEREFVAAITWNGVSTYYADSVKGRFTISRDNAKNTVYLQMNSLKPEDTAVYYCNADYVFSPWAYEYWGQGTQVTVSS	high polyreactivity
QVQLVESGGGLVQAGGSLRLSCAASGLIFILYAMGWYRQAPGKERELVAAISWTGGSTYYADSVKGRFTISRDNAKNTVYLQMNSLKPEDTAVYYCNKVGVRSGARSIYVVRRYEYWGQGTQVTVSS	high polyreactivity
QVQLVESGGGLVQAGGSLRLSCAASGLIFIQYAMGWYRQAPGKEREFVAAISWSGTSTHYADSVKGRFTISRDNAKNTVYFQMNSLKPEDTAVYYCAAAKTGRGRGTTGYGYWGQGTLVTVSS	high polyreactivity
QVQLVESGGGLVQAGGSLRLSCAASGLIFITYAMGWYRQAPGKERELVATITLRGGSTYYADSVKGRFTISRDNAKNTVYLQMNSLKPEDTAVYYCAARYFSYYILRRIYPVREDYWGQGTQVTVSS	low polyreactivity
QVQLVESGGGLVQAGGSLRLSCAASGLIFKSYAMGWSRQAPGKERELVAVISSSGGSTYYADSVKGRFTISRDNAKNTVYLQMNSLKPEDTAVYYCAARSTYRTGDYWGQGTQVTVSS	high polyreactivity
QVQLVESGGGLVQAGGSLRLSCAASGLIFKVYALGWYRQAPGQERELVAAITYSGGSTDYADSVKGRFTISRDNAKNTVYLQMNSLKPEDTAVYYCNVETVGHVNSYGYDYWGQGTQVTVSS	low polyreactivity
QVQLVESGGGLVQAGGSLRLSCAASGLIFKWYGMGWYRQAPGKERELVAAITENGGSTYYADSVKGRFTISRDNAKNTVYLQMNSLKPEDTAVYYCAAETWADWYSEFYWGQGTQVTVSS	high polyreactivity
QVQLVESGGGLVQAGGSLRLSCAASGLIFKYNAMGWYRHAPGKERELVAAISTSGGSTYYADSVKGRFTISRDNAKNTVYLQMNSLKPEDNAVYFCNAVAGRPFRYYYWGQGTQVTVSS	high polyreactivity
QVQLVESGGGLVQAGGSLRLSCAASGLIFKYNAMGWYRQAPGKERELVAAITWSGGITYADSVKGRFTISRDNAKNTVYLQMNSLKPEDTAVYYCAARGYWQPRPRRRYDYWGQGTQVTVSS	high polyreactivity

Sequence	polyreactivity (PSR sort gate)
QVQLVESGGGLVQAGGSLRLSCAASGLIFKYNGRGWNRQAPGNVRELGAAITKRGGSTYYADSVKGRFTISRDKAKNTVYLQMNSLKPEDTAVYYCAAGRAGRKDYYWGQGTQVTVSS	high polyreactivity
QVQLVESGGGLVQAGGSLRLSCAASGLIFLDYAMGWYRQAPGKERELVAAISRSGGRTYYADSVKGRFTISGDNAKNTVYLQMNSLKPEDTAVYYCAADGSRKSEIYDYWGQGTQVTVSS	high polyreactivity
QVQLVESGGGLVQAGGSLRLSCAASGLIFLEYAMGWYRQAPGKEREMVAAISTSGGSTYYADSVKGRFTISRDNAKNTVYLQLNSLTPEDTAVYYCAADPVYNYYFDDGDYWGQGTQVTVSS	low polyreactivity
QVQLVESGGGLVQAGGSLRLSCAASGLIFLGNAMGWYRQAPGKERELVAAISRSGGTTYYADSVKGRFTISRDNAKNTVYLQMNSLKPEDTAVYYCNAYNPYYRATVSSRGYGYWGQGTQVTVSS	high polyreactivity
QVQLVESGGGLVQAGGSLRLSCAASGLIFLRYAMGWYRQAPGTERELVAVISSGGRTYYADSVKGRFTISRDNAKNTVYLQMNSLKPEDTAVYYCAARTRSYWGTYGSYHYDYWGQGTQVTVSS	high polyreactivity
QVQLVESGGGLVQAGGSLRLSCAASGLIFLSHTMGWYRQAPGKERELVATIDGGAGSTYYADSVKGRFTFSRDNAKNTVYLQMNSLKPEDTAVYYCAATTIPGWFGSFPVSAGDYWGQGTQVTVSS	low polyreactivity
QVQLVESGGGLVQAGGSLRLSCAASGLIFLWYAMGWYRQAPGKERELVAAIRSSGDSTYYADSVKGRFTISRDNAKNTVYLQMNSLKPEDTAVYYCNRRKTNSRYDYCGQGTQVTVSS	low polyreactivity
QVQLVESGGGLVQAGGSLRLSCAASGLIFNIYAMGWYRQAPGKARELVATIRYSGGSTNYADSVKGRFTISRDNAKNTVYLQMNSLKPEVTAVYYCNAGYYPTGYDYWGQGTQVTVSW	low polyreactivity
QVQLVESGGGLVQAGGSLRLSCAASGLIFNIYAMGWYRQAPGKERELVAAISKSGGSTYYADSVKGRFTISRDNAKNTVYLQMNSLKPEDTAVYYCAVRSMRVDKYGYWGQGTQVTVSS	high polyreactivity
QVQLVESGGGLVQAGGSLRLSCAASGLIFNNYAMGWYRQAPGKERELVATISRTGTSTYYADSVKGRFTISRDNAKNTVYLQMNSLKPEDTAVYYCNAVIQLFEWGWDDEYDYWGQGTQVTVSS	low polyreactivity
QVQLVESGGGLVQAGGSLRLSCAASGLIFNRNDMGRYRQAPGKETELVAAISGDGGITYYADSVKGRFTISRDNAKNTVYLQMNSLKPEDTAVYYCNAGFTWGDWYDYWGQGTQVTVSS	low polyreactivity
QVQLVESGGGLVQAGGSLRLSCAASGLIFNYYAMGWYRQAPGKERELVAAISYNGGTTYYADSVKGRFTISRDNAKNTVYLQMNSLKPEDTAVYYCAAEQLVSGYDYWGQGTQVTVSS	low polyreactivity
QVQLVESGGGLVQAGGSLRLSCAASGLIFPFYTMGWYRQAPGKERELVASISSGASTYYADSVKGRFTISRDNAKNTVYLQMNSLKPEDTAVYYCNADTFAWEGQRKWFAYDYWGQGTQVTVSS	low polyreactivity
QVQLVESGGGLVQAGGSLRLSCAASGLIFPSYAMGWYRQAPGKEMELVAAITFSGSDTNYADSVKGRFTISRDNAKNTVYLQMNSLKPEDTAVAYCAAAYFDFWGWLHDYWGQGTQVTVSS	low polyreactivity
QVQLVESGGGLVQAGGSLRLSCAASGLIFPTNAMGWYRPAPGKERELVAAISSVGSTYYADSVKGRFTISRDNAKNTVYLQMNSLKPEDTAVYYCAAYWYGSQYKWRYDYWGQGTQVTVSS	low polyreactivity
QVQLVESGGGLVQAGGSLRLSCAASGLIFPWTYAMGWYRQAPGKEREFVAAITSSDGSTYYADSVKGRFTISRDNAKNTVYLQMNSLKPEDTAVYYCAAVGWDYDWDYYYWGQGTQVTVSS	high polyreactivity
QVQLVESGGGLVQAGGSLRLSCAASGLIFPYYAMGWNRQAPGKESELVAASSGSGGRTYYADSVKGRFTISRDNAKITVYLQMNSRKPEDTAVYYCAAAVLDSYTRYIWYIYDYWGQGTQVTVSS	high polyreactivity
QVQLVESGGGLVQAGGSLRLSCAASGLIFPYYAMGWYRPAPGKERELVAAISRSGDSTYYADSVKGRFTISRDNAKNTVYLQMYSLKPEDTAVYYCAAVLSYSYVRYNYWGQGTQVNVSS	high polyreactivity
QVQLVESGGGLVQAGGSLRLSCAASGLIFPYYAMGWYRQAHGKERELVAAITRRGGSTYYADSVKGRFTISRDNAKNTVYLQMNSLKPEDTAVYYCNKVDQGRYGYWGQGTQVTVSS	high polyreactivity
QVQLVESGGGLVQAGGSLRLSCAASGLIFQRNTMGWYRQAPGKERELVAAISRSGGSTYYADSVKGRFTISRDNAKNTVYLQMNSLKPEDTAVYYCAALIFRHRGKDDDYWGQGTQVTVSS	high polyreactivity
QVQLVESGGGLVQAGGSLRLSCAASGLIFQYYVMGWYRQAPGKERELVAAISARGGGTYYADSVKGRFTISRDNEKITVYLQMNSLKPEDTAVYYCAADFGTIRVYSGDYWGQGTQVTVSS	high polyreactivity
